In paper PMC2928749, “Understanding the Role of the Josephin Domain in the PolyUb Binding and Cleavage Properties of Ataxin-3” (PLoS ONE, 2010):

Key:
[1] = target: T1, K63-linked diUb (made from UbD77 and UbK63R) (UniProt P0CG47 1-76; P0CG47 1-76, UbD77 | UbK63R, K63-linked to the other Ub (isopeptide bond between K63 and G76) | K63-linked to the other Ub (isopeptide bond between K63 and G76)); test: NMR titration; 15N-labelled Josephin (C14A) 0.05 mM in 20 mM sodium phosphate pH 6.5, 2 mM DTT, 298 K, 600 MHz; stepwise additions of unlabelled K48- or K63-linked diUb up to 10 and 2.5 fold molar excess; chemical shift perturbation; conditions: both partners purified
T1 construct: ubiquitin, mutant UbD77; ubiquitin, mutant UbK63R; By the usual protocol G76 of UbK63R is joined to K63 of UbD77; also called K63-linked diUb chains; K63-diUb; source: recombinant Ub mutants joined with E1, Ubc13 and Uev1a by the same protocol, purified on a monoS cation exchange column; copies: 1 + 1

[2] = target: T2, K48-linked diUb (made from UbD77 and UbK48C) (UniProt P0CG47 1-76; P0CG47 1-76, UbD77 | UbK48C, K48-linked to the other Ub (isopeptide bond between K48 and G76) | K48-linked to the other Ub (isopeptide bond between K48 and G76)); test: as above; conditions: both partners purified
T2 construct: ubiquitin, mutant UbD77; ubiquitin, mutant UbK48C; also called K48-linked diUb chains; K48-diUb; copies: 1 + 1

B1: Josephin domain of ataxin-3 (amino acids 1-182), C14A mutant, 15N labelled (domain or fragment, UniProt P54252 1-182, looked up)
chain: MESIFHEKQEGSLAAQHCLNNLLQGEYFSPVELSSIAHQLDEEERMRMAEGGVTSEDYRTFLQQPSGNMDDSGFFSIQVISNALKVWGLELILFNSPEYQRLRIDPINERSFICNYKEHWFTVRKLGKQWFNLNSLLTGPELISDTYLALFLAQLQQEGYSIFVVKGDLPDCEADQLLQMIR
modifications: 15N labelled
notes: ataxin-3, N-terminal catalytic Josephin domain, amino acids 1-182; catalytic cysteine mutated so that no cleavage could occur; The methods speak of titrations of 15N Josephin or of the C14A mutant; the results say that C14A was used; also called isolated Josephin domain; C14A Josephin mutant; source: E. coli BL21(DE3), purified as previously described [35]; grown in synthetic medium with 15NH4Cl
Question: Does B1 bind [1]?
Answer: binds

Question: Does B1 bind [2]?
Answer: binds
